Here are results for 47 sequences from the supplement of paper PMC9233669.

This sample holds only a part of the variants without activity.

In one data set the test system is biotinyl-Leu-oxazolone. In words: self-aminoacylation, catalytic enhancement (BLO) (fold over background); higher = more active; k-Seq, kA / k0A0; sequences stand for … in GGGAAUGGAUCCACAUCUACGAAUUC…UUCACUGCAGACUUGACGAAGCUG
The method in brief:
(§1)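 Catalytic enhancement equals the median kA over the uncatalyzed rate, the latter read from the low-activity peak of a bimodal Gaussian fit. Values of kA came from fitting each sequence's fraction reacted to a pseudo-first-order model, with 1000 bootstraps. Reacted RNA was captured with streptavidin and quantified by triplicate qPCR and Illumina sequencing after 90 minutes at room temperature with 2–1250 μM biotinyl-aminoacyl-oxazolone and 0.43 μM mutagenized RNA pools bearing a 21-nt variable region.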

The subject of the next data set is biotinyl-Phe-oxazolone. In words: self-aminoacylation, catalytic enhancement (BFO) (fold over background); higher = more active; k-Seq, kA / k0A0; sequences stand for … in GGGAAUGGAUCCACAUCUACGAAUUC…UUCACUGCAGACUUGACGAAGCUG
The method in brief:
as §1

Another data set has as its system biotinyl-Trp-oxazolone. In words: self-aminoacylation, catalytic enhancement (BWO) (fold over background); higher = more active; k-Seq, kA / k0A0; sequences stand for … in GGGAAUGGAUCCACAUCUACGAAUUC…UUCACUGCAGACUUGACGAAGCUG
In short, it runs like this: as §1

As to “CCACUCUUCAAGCAAUCGGGC [Fam1B.1 aminoacylation ribozyme variant]”, the self-aminoacylation with biotinyl-Leu-oxazolone was 2.21.

Turning to “AUUCACUUAGCUCAUCGGGUG [Fam2.2 aminoacylation ribozyme variant]”, the self-aminoacylation with biotinyl-Phe-oxazolone is 4.96; with biotinyl-Leu-oxazolone it was 2.03.

In the case of “CCAGGCUUCAAGCAAUCGGUC [Fam1B.1 aminoacylation ribozyme variant]”, the self-aminoacylation with biotinyl-Phe-oxazolone came out at 83.5; in the data set with biotinyl-Trp-oxazolone it was 40.8; with biotinyl-Leu-oxazolone, 2.42.

In the case of “UUACUUCAAACAAUCGGUCGG [Fam1A.1 aminoacylation ribozyme variant]”, the self-aminoacylation in the data set on biotinyl-Phe-oxazolone amounted to 18.1; with biotinyl-Trp-oxazolone, 14.5; in the data set with biotinyl-Leu-oxazolone, 2.1.

Regarding “CUACCUCAAACAAUCGGCCUG [Fam1A.1 aminoacylation ribozyme variant]”, the self-aminoacylation in the data set on biotinyl-Phe-oxazolone was found to be 3.13; with biotinyl-Trp-oxazolone, 5.05; with biotinyl-Leu-oxazolone it was 2.11.

For the sequence “CGACUUCAAACAAUCGGUGUG [Fam1A.1 aminoacylation ribozyme variant]”, the self-aminoacylation in the data set on biotinyl-Phe-oxazolone was 10.9; with biotinyl-Trp-oxazolone, 9.56; in the data set on biotinyl-Leu-oxazolone it was 2.54.

Take “AAGCUUGCUAAUAGUCGCAGG [Fam3.1 aminoacylation ribozyme variant]”: the self-aminoacylation in the data set on biotinyl-Phe-oxazolone turned out to be 7.7; with biotinyl-Trp-oxazolone, 2.15; with biotinyl-Leu-oxazolone, 2.14.

In the case of “UCAGACUUCAAGCAAUCGGUC [Fam1B.1 aminoacylation ribozyme variant]”, the figures for the self-aminoacylation with biotinyl-Phe-oxazolone, in the data set on biotinyl-Trp-oxazolone and in the data set on biotinyl-Leu-oxazolone were 63.8, 37.2 and 2.62, respectively.

With “CCGCACUUCAAACAAUCGGUC [Fam1B.1 aminoacylation ribozyme variant]”, the self-aminoacylation in the data set with biotinyl-Phe-oxazolone was 157; in the data set on biotinyl-Trp-oxazolone, 74.3; with biotinyl-Leu-oxazolone it was 3.41.

On to “CUACUUCAAAGAAUCGGCCUG [Fam1A.1 aminoacylation ribozyme variant]”, for which the figures for the self-aminoacylation in the data set with biotinyl-Phe-oxazolone, with biotinyl-Trp-oxazolone and in the data set with biotinyl-Leu-oxazolone were 6.89, 8.54 and 2, respectively.

Consider “CUGCUUCAAACAAUCGGUCUC [Fam1A.1 aminoacylation ribozyme variant]”, for which the self-aminoacylation in the data set on biotinyl-Phe-oxazolone turned out to be 107; with biotinyl-Trp-oxazolone, 46; in the data set on biotinyl-Leu-oxazolone it was 2.47.

For “AAGUGUGCUAAUAGUCGCCAG [Fam3.1 aminoacylation ribozyme variant]”, the self-aminoacylation with biotinyl-Phe-oxazolone was determined as 2.38; in the data set with biotinyl-Trp-oxazolone, 2.33; with biotinyl-Leu-oxazolone, 2.2.

As to “CUACUUCAAACAAUCGGUCUG [Fam1A.1 aminoacylation ribozyme variant]”, the self-aminoacylation in the data set on biotinyl-Phe-oxazolone amounted to 67.9; in the data set with biotinyl-Trp-oxazolone it was 31.4.

Take “ACACACUUCAAGCAAUCGGUC [Fam1B.1 aminoacylation ribozyme variant]”: the self-aminoacylation in the data set on biotinyl-Phe-oxazolone amounted to 27.1; in the data set on biotinyl-Trp-oxazolone it was 13.1.

In the case of “CUACGUCAAAAAAUCGGUCUG [Fam1A.1 aminoacylation ribozyme variant]”, the self-aminoacylation in the data set with biotinyl-Phe-oxazolone was determined as 5.5; in the data set with biotinyl-Trp-oxazolone, 2.35.

As for “CCACACUUCAAGCAGUCGCUC [Fam1B.1 aminoacylation ribozyme variant]”, the self-aminoacylation is 4.31 with biotinyl-Phe-oxazolone and 2.06 in the data set on biotinyl-Leu-oxazolone.

Turning to “AAGCUUGAUAAUAGUCGCAAG [Fam3.1 aminoacylation ribozyme variant]”, the values for the self-aminoacylation with biotinyl-Phe-oxazolone and in the data set with biotinyl-Trp-oxazolone were 2.72 and 2.02, respectively.

For “AAACUUCAAACAAUCGGUCUG [Fam1A.1 aminoacylation ribozyme variant]”, the self-aminoacylation with biotinyl-Phe-oxazolone was found to be 30.9; in the data set on biotinyl-Trp-oxazolone, 18.7.

As to “CUACACUUCAAGGAAUCGGUC [Fam1B.1 aminoacylation ribozyme variant]”, the self-aminoacylation with biotinyl-Phe-oxazolone was determined as 3.89; in the data set on biotinyl-Trp-oxazolone it was 4.18.

“CUACUUCAAACAAUCGGUCCU [Fam1A.1 aminoacylation ribozyme variant]”: the self-aminoacylation in the data set with biotinyl-Phe-oxazolone is 6.8; in the data set on biotinyl-Trp-oxazolone, 3.25.

“CCAAACUUCAACCAAUCGGUC [Fam1B.1 aminoacylation ribozyme variant]”: the self-aminoacylation amounted to 43.8 with biotinyl-Phe-oxazolone and 27.5 with biotinyl-Trp-oxazolone.

Turning to “AUACAUCAAACAAUCGGUCUG [Fam1A.1 aminoacylation ribozyme variant]”, the results for the self-aminoacylation in the data set with biotinyl-Phe-oxazolone and in the data set with biotinyl-Trp-oxazolone were 4.05 and 2.68, respectively.

With “GCACUCUUCAAGCAAUCGGUC [Fam1B.1 aminoacylation ribozyme variant]”, the results for the self-aminoacylation in the data set on biotinyl-Phe-oxazolone, with biotinyl-Trp-oxazolone and in the data set with biotinyl-Leu-oxazolone were 6.58, 5.27 and 2.07, respectively.

For the sequence “CUGCACUUCAAGCAAUCGGUC [Fam1B.1 aminoacylation ribozyme variant]”, the self-aminoacylation with biotinyl-Phe-oxazolone amounted to 52; with biotinyl-Trp-oxazolone, 28.1.

“AUUACCCUCGUCGUCGAGUGA [Fam2.1 aminoacylation ribozyme variant]”: the self-aminoacylation with biotinyl-Phe-oxazolone was found to be 3.84; in the data set on biotinyl-Trp-oxazolone, 2.11; in the data set on biotinyl-Leu-oxazolone, 2.04.

Consider “CUACCUCAAACAUUCGGUCUG [Fam1A.1 aminoacylation ribozyme variant]”, for which the self-aminoacylation in the data set on biotinyl-Phe-oxazolone was 10.3; with biotinyl-Trp-oxazolone, 3.08; with biotinyl-Leu-oxazolone it was 2.13.

Regarding “CCUCACUUCAAGAAAUCGGUC [Fam1B.1 aminoacylation ribozyme variant]”, the results for the self-aminoacylation in the data set on biotinyl-Phe-oxazolone and with biotinyl-Trp-oxazolone were 11 and 7.71, respectively.

For the sequence “AAGUUCUCUAAUAGUCGCAAG [Fam3.1 aminoacylation ribozyme variant]”, the self-aminoacylation came out at 3.34 in the data set with biotinyl-Phe-oxazolone and 2.07 with biotinyl-Trp-oxazolone.

With “CCUCUUCAAACAAUCGGUCUG [Fam1A.1 aminoacylation ribozyme variant]”, the values for the self-aminoacylation with biotinyl-Phe-oxazolone, in the data set on biotinyl-Trp-oxazolone and in the data set on biotinyl-Leu-oxazolone were 85.8, 38.6 and 2.36, respectively.

As to “UCAAACUUCAAGCAAUCGGUC [Fam1B.1 aminoacylation ribozyme variant]”, the values for the self-aminoacylation in the data set with biotinyl-Phe-oxazolone and with biotinyl-Trp-oxazolone were 25.8 and 15.9, respectively.

As to “AAGUAUGCUAAUAGUCGCAAG [Fam3.1 aminoacylation ribozyme variant]”, the self-aminoacylation in the data set with biotinyl-Phe-oxazolone was found to be 22.9; with biotinyl-Trp-oxazolone it was 6.46.

On to “CUACUUCAAACAAUCGGUCGC [Fam1A.1 aminoacylation ribozyme variant]”, for which the self-aminoacylation with biotinyl-Phe-oxazolone came out at 46.9; in the data set with biotinyl-Trp-oxazolone, 26.2.

For “AUGUUUGCUAAUAGUCGCAAG [Fam3.1 aminoacylation ribozyme variant]”, the results for the self-aminoacylation with biotinyl-Phe-oxazolone and with biotinyl-Trp-oxazolone were 12.9 and 4.22, respectively.

“AAGGUUGCUAAUAGUCGCAGG [Fam3.1 aminoacylation ribozyme variant]”: the self-aminoacylation in the data set with biotinyl-Phe-oxazolone was determined as 3.23; in the data set with biotinyl-Trp-oxazolone, 2.28.

On to “GUACUUCAAACAAUCGGUAUG [Fam1A.1 aminoacylation ribozyme variant]”, for which the self-aminoacylation with biotinyl-Phe-oxazolone was 11.5; in the data set with biotinyl-Trp-oxazolone, 9.84.

Turning to “CUACUUCAAACAAUCAGUCAG [Fam1A.1 aminoacylation ribozyme variant]”, the values for the self-aminoacylation in the data set with biotinyl-Phe-oxazolone and with biotinyl-Trp-oxazolone were 6.15 and 2.43, respectively.

As for “CUACUUCAAAUAAUCGGUAUG [Fam1A.1 aminoacylation ribozyme variant]”, the values for the self-aminoacylation in the data set with biotinyl-Phe-oxazolone and with biotinyl-Trp-oxazolone were 7.28 and 3.96, respectively.

With “AUUGACCUAGGUCAUCGGGAG [Fam2.2 aminoacylation ribozyme variant]”, the self-aminoacylation in the data set on biotinyl-Phe-oxazolone came to 3.29; with biotinyl-Trp-oxazolone it was 2.04.

As for “CCGCACUUCAAGAAAUCGGUC [Fam1B.1 aminoacylation ribozyme variant]”, the self-aminoacylation in the data set on biotinyl-Phe-oxazolone amounted to 12.2; in the data set on biotinyl-Trp-oxazolone it was 10.3.

As for “AUUACCCUGGUCAUCCAGAGA [Fam2.1 aminoacylation ribozyme variant]”, the self-aminoacylation with biotinyl-Phe-oxazolone was determined as 2.38; in the data set on biotinyl-Leu-oxazolone it was 2.03.

As for “CUACACUUCAACCAAUCGGUC [Fam1B.1 aminoacylation ribozyme variant]”, the self-aminoacylation was found to be 59.2 with biotinyl-Phe-oxazolone and 30 in the data set with biotinyl-Trp-oxazolone.

Take “AUUCACCUAGGUCCUCGGGAG [Fam2.2 aminoacylation ribozyme variant]”: the self-aminoacylation in the data set on biotinyl-Phe-oxazolone came to 2.83; in the data set with biotinyl-Leu-oxazolone, 2.11.

With “CCCCAAUUCAAGCAAUCGGUC [Fam1B.1 aminoacylation ribozyme variant]”, the results for the self-aminoacylation with biotinyl-Phe-oxazolone and in the data set with biotinyl-Trp-oxazolone were 7.89 and 7.09, respectively.

On to “AAGUUUGCCAAUUGUCGCAAG [Fam3.1 aminoacylation ribozyme variant]”, for which the self-aminoacylation worked out at 2.77 in the data set with biotinyl-Phe-oxazolone and 2.15 with biotinyl-Trp-oxazolone.

Turning to “UUACUUCAAACAAUCGGUCUU [Fam1A.1 aminoacylation ribozyme variant]”, the self-aminoacylation with biotinyl-Phe-oxazolone came to 17; with biotinyl-Trp-oxazolone it was 9.31.

On to “CUCCUUCAAACAAUCAGUCUG [Fam1A.1 aminoacylation ribozyme variant]”, for which the self-aminoacylation in the data set on biotinyl-Phe-oxazolone turned out to be 20; with biotinyl-Trp-oxazolone, 7.05.

“CUUCUUCAAACAAUCGGUCCG [Fam1A.1 aminoacylation ribozyme variant]”: the self-aminoacylation with biotinyl-Phe-oxazolone turned out to be 3.96; in the data set with biotinyl-Trp-oxazolone it was 2.74.
